Target: Fur (Salmonella enterica serovar Typhimurium …, UniProt A0A0H3NJ13 1-150)
Assay: fluorescence anisotropy

B1: furbox (dsDNA)
DNA 1: GGGGATAATGATAATCATTATCGGG
DNA 2: CCCGATAATGATTATCATTATCCCC
  Kd: 0.056 µM

Reference: article PMC6420079
